Results: article PMC7344267

Molecular target: T1, Nt^17 peptide, the seventeen-residue N-terminal region of huntingtin (htt)
T1 chain: MATLEKLMKAFESLKSF
Assay: native MS
Conditions: remark: other sources report otherwise

MATLEKLMKAFESLKSF [Nt^17 peptide, the seventeen-residue N-terminal region of huntingtin (htt)] showed a normalized collision energy for 50% signal decay of the complex of 20 NCE and a stoichiometry N of 4.
